Data set [1] concerns the target Tumor susceptibility gene-101 coiled coil domain (TSG101cc), residues 229-304 (human) (UniProt Q99816). Put plainly: differential scanning calorimetry.
For data set [2] the target is unchanged. Nature of the data set: circular dichroism thermal unfolding.
Data set [3] has as its system Q99816. Put plainly: differential scanning calorimetry. To be noted: other: differential scanning calorimetry.
The test system of data set [4] is Q99816. Put plainly: circular dichroism thermal unfolding. Particulars: other: circular dichroism thermal unfolding.

Chain of Tumor susceptibility gene-101 coiled coil domain (TSG101cc), residues 229-304 (Q99816 2-390): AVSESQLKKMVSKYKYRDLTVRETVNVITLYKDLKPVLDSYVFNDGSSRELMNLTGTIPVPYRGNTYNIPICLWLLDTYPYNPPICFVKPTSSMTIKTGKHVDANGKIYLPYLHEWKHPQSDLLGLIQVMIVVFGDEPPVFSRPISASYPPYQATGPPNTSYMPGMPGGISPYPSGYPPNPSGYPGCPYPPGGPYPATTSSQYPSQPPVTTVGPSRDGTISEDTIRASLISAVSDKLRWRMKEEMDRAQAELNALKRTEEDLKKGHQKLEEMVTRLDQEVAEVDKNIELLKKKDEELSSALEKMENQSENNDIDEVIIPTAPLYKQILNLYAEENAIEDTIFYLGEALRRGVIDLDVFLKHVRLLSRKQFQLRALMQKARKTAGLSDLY

Turning to “Tumor susceptibility gene-101 coiled coil domain (TSG101cc), residues 229-304 (from UniProt Q99816 229-304) (domain or fragment)”, the stoichiometry N in data set [1] and in data set [2] was 4 each time.
Consider “Tumor susceptibility gene-101 coiled coil domain (TSG101cc), residues 229-304”, for which the dH (unfolding and dissociation of the tetramer, per mol of monomer) turned out to be 45.6 kcal/mol in the data set with Q99816 [3] and 56.5 kcal/mol with Q99816 [4].

The record behind these values is article PMC5616090.
